Data taken from patent publication US20240067748A1 (NONA BIOSCIENCES SUZHOU, published 2024).
Positions count from the first letter of the chain named.

B1: PR001170 (antibody, human IgG1, kappa, V domains shown)
VH: QVQLQESGPGLVKPSETLSLTCAVSGYSINSGYFWAWIRQPPGMGLEWIGSIYHSGRTHYNPSLKSRVIISLDTSKNQFSLKLRSVTAADSAVYYCAREGYASGSYYWGQGTLVTVSS
VL: EIVMTQSPATLSVSPGERATLSCRSSQSVNSYLAWFQQKPGQAPRLLIYDSSTRATGIPARFSGSGSGTEFTLTISSLQSEDFAFYFCQQYENWPLTFGGGTKVEIKR
notes: fully human IgG1/kappa; also called antibody No. (29)
B2: PR001132 (antibody, human IgG1, kappa, V domains shown)
VH: QVELVESGGGVVQPGRSLRLSCGASGFTFSSYNMYWVRQAPGKGLEWVAGIWDDGNNKYYANSVKGRFTISRDNSKNTLYLQMNSLRTEDTALYYCAKDGWGSYGEYFQHWGQGTLVTVSS
VL: DIQMTQSPSSLSASVGERVTITCRASQNINSYLSWYQQKPGKAPKLLIYAASSLQNGVPSRFSGSGSGTDFTLTISSLQPEDFATYYCQQSFSTPPITFGQGTRLEIKR
notes: fully human IgG1/kappa; also called antibody No. (4)
B3: PR001171 (antibody, human IgG1, kappa, V domains shown)
VH: QVQLVESGGGVVQPGRSLRLSCAASGFTFSHYGMHWVRQAPGKGLEWVAVIWYDGIKKNYVESVKGRFTISRDNSKNTLNLQMNRLRAEDTAVYYCARDGGFGESNYYGLDVWGQGTTVTVSS
VL: DIQLTQSPSFLSASVGDRVTITCRASQGISSYLGWYQQKPGKAPKLLIYIASTLQSGVPSRFSGSGSGTEFTLTISSLQPEDFATYYCQQLNSYPYTFGQGTKLEIKR
notes: fully human IgG1/kappa; also called antibody No. (30)
B4: PR001154 (antibody, human IgG1, kappa, V domains shown)
VH: B3 VH with A23E, N59Y, V61I, T69I, N80Y, S105L
VL: B3 VL with I50V
notes: fully human IgG1/kappa; also called antibody No. (17)
B5: PR001152 (antibody, human IgG1, kappa, V domains shown)
VH: B3 VH with G10A, K58S, N59Y, N80Y, N84D
VL: B3 VL with S30N, Q38R
notes: fully human IgG1/kappa; also called antibody No. (15)
B6: PR001156 (antibody, human IgG1, kappa, V domains shown)
VH: B3 VH with A23E, A24G, E62D, V64L, N80Y, R85S, S105L, L110M
VL: B3 VL
notes: fully human IgG1/kappa; also called antibody No. (19)
B7: PR001158 (antibody, human IgG1, kappa, V domains shown)
VH: B3 VH with A23V, N59Y
VL: B3 VL
notes: fully human IgG1/kappa; also called antibody No. (20)
B8: PR001151 (antibody, human IgG1, kappa, V domains shown)
VH: B3 VH with N59D, N80Y, S105L
VL: B3 VL with I50V
notes: fully human IgG1/kappa; also called antibody No. (14)
B9: PR001159 (antibody, human IgG1, kappa, V domains shown)
VH: B3 VH with A23E, K58T
VL: B3 VL
notes: fully human IgG1/kappa; also called antibody No. (21)
B10: PR001155 (antibody, human IgG1, kappa, V domains shown)
VH: B3 VH with E6Q, N59Y, N80Y, S105L
VL: B3 VL with I50V
notes: fully human IgG1/kappa; also called antibody No. (18)
B11: PR001150 (antibody, human IgG1, kappa, V domains shown)
VH: B3 VH with G15E, R16K, A40V, K58R, N59Y, N80Y
VL: B3 VL with S30N, Q38R
notes: fully human IgG1/kappa; also called antibody No. (13)
B12: PR001138 (antibody, human IgG1, kappa, V domains shown)
VH: QVQLQESGPRLVKPSETLSLTCAVSGYSISSGYYWGWIRQSPGMGLEWIAYIYHDGSTYCNPSLKSRVTMSVDTSKNQFSLKLRSVTAADTAVYYCARDGAAAPFDYWGQGTLVTVSS
VL: DIQMTQSPSTLSASVGDRVTITCRASQSISNWLAWYQQKPGKAPKVLIYKASSLESGVPSRFSGSGSGTEFTLTINSLQPDDFATYYCQQYDSYSITFGQGTRLEIKR
notes: fully human IgG1/kappa; also called antibody No. (7)

molecular target: T1, human TROP2 protein (Sino Biological, #10428-H08H) (human, UniProt P09758 27-274); assay: BLI, Octet RED96, AHC sensor
T1 construct: bought protein; also called human Trop2 protein antigen (His tag); not shown: His tag
T1 sequence (looked up): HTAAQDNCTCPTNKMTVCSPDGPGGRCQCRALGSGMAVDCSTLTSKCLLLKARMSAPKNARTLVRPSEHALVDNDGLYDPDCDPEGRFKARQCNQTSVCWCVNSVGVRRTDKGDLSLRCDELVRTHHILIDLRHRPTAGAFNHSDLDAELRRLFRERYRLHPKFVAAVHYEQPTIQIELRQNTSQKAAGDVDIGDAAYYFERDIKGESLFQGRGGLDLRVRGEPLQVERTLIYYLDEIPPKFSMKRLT
Method: (§1) Specifically, a human TROP2 protein (Sino Biological, #10428-H08H) or a monkey Trop2 protein (Sino Biological, #90893-C08H) was diluted to 200 nM with a PBS buffer (pH 7.4) containing 0.1% (w/w) BSA and 0.02% (v/v) tween 20, and incubated with the AHC sensor respectively. 40 nM Trop2 antibody was incubated at 30° C. for 3 min with the AHC sensor loaded with the human Trop2 protein or monkey Trop2 protein respectively. The reaction mixture was incubated at 30° C. for another 5 min in a PBS buffer (pH 7.4) containing 0.1% (v/w) BSA and 0.02% (v/v) Tween 20. The association and dissociation signals between the Trop2 antibody and the human Trop2 protein or monkey Trop2 protein were recorded by Octet Red 96 in real time. The affinity and the association and dissociation constants were determined by Octet using software.

| Binder | Kd [nM] | Response | koff [s⁻¹] | kon [M⁻¹ s⁻¹] | fold lower KD than the reference antibody Tab (hRS7) [fold] |
| --- | --- | --- | --- | --- | --- |
| B1 | < 0.001 | 0.368 | < 1e-07 | 476000 | – |
| B2 | < 0.001 | 0.417 | < 1e-07 | 121000 | ~10 |
| B3 | 0.0251 | 0.326 | 3.74e-06 | 149000 | – |
| B4 | 0.855 | 0.41 | 9.23e-05 | 108000 | – |
| B5 | 0.135 | 0.348 | 2.08e-05 | 154000 | – |
| B6 | 0.0916 | 0.354 | 1.67e-05 | 183000 | – |
| B7 | 0.155 | 0.433 | 2.05e-05 | 132000 | – |
| B8 | 1.12 | 0.407 | 0.000127 | 113000 | – |
| B9 | < 0.001 | 0.38 | < 1e-07 | 176000 | ~10 |
| B10 | 1.84 | 0.406 | 0.000144 | 78100 | – |
| B11 | 0.0326 | 0.382 | 5.25e-06 | 161000 | ~10 |
| B12 | < 0.001 | 0.338 | < 1e-07 | 148000 | ~10 |

molecular target: T2, monkey Trop2 protein (Sino Biological, #90893-C08H) (monkey, UniProt A0A2K5UE71 27-274); assay: BLI, Octet RED96, AHC sensor
T2 construct: bought protein; also called monkey Trop2 protein antigen (His tag)
T2 sequence: T1 sequence (looked up) with M36V, K46E, S67N, I204V
Method: as §1

| Binder | Kd [nM] | Response | koff [s⁻¹] | kon [M⁻¹ s⁻¹] |
| --- | --- | --- | --- | --- |
| B1 | < 0.001 | 0.387 | < 1e-07 | 307000 |
| B2 | 0.164 | 0.418 | 1.43e-05 | 86900 |
| B3 | 0.151 | 0.319 | 1.34e-05 | 88300 |
| B4 | 1.91 | 0.379 | 0.000139 | 72700 |
| B5 | 1.02 | 0.343 | 0.000105 | 103000 |
| B6 | 0.536 | 0.349 | 6.15e-05 | 115000 |
| B7 | 0.708 | 0.406 | 6.23e-05 | 87900 |
| B8 | 2.38 | 0.351 | 0.00018 | 75800 |
| B9 | 0.307 | 0.372 | 3.39e-05 | 111000 |
| B10 | 4.26 | 0.356 | 0.000219 | 51500 |
| B11 | 0.319 | 0.344 | 3.41e-05 | 107000 |
| B12 | 0.409 | 0.329 | 3.98e-05 | 97400 |

molecular target: T3, human Trop2 on cells (human, UniProt P09758 27-323); assay: flow cytometry on 293T-human Trop2 cells
T3 construct: whole, on cells; also called hTrop2; 293T-human Trop2 cells
T3 sequence (looked up): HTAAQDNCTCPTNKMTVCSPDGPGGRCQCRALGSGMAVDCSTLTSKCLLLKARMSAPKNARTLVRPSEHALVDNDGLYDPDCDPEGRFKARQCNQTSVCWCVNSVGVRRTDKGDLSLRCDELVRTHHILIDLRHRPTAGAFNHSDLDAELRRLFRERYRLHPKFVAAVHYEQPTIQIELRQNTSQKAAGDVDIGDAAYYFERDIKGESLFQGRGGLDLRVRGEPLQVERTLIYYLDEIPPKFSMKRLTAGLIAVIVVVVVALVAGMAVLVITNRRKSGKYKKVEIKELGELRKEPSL
Method: The cell density was determined, and the cells were resuspended to 1×10⁶ cells/mL in PBS. 100 μL of cell suspension was taken from each well and added to a 96 well V-bottom plate. The 96-well V-bottom plate was centrifuged at 1000 rpm for 5 min and washed once with PBS+0.5% BSA (VWR, #0332-100G). […] After 1 h, the cells were washed twice with PBS+0.5% BSA. The cells were incubated with 100 μL of Alexa Fluor 488 goat anti-human IgG (Life technologies, 1:1000, #A-11013) at 4° C. for 1 h in the dark, and washed twice with PBS+0.5% BSA. The cells were resuspended in 200 μL of PBS+0.5% BSA. The fluorescence intensity of the cells was analyzed using a FACS verse flow cytometer. All procedures were performed on ice.

| Binder | EC50 [nM] | Maximum (MFI) | Top % [%] |
| --- | --- | --- | --- |
| B1 | 0.352 | 6960 | 107 |
| B2 | 0.441 | 6920 | 107 |
| B3 | 0.997 | 6600 | 102 |
| B4 | 2.11 | 7470 | 115 |
| B5 | 1.93 | 7180 | 111 |
| B6 | 1.67 | 7270 | 112 |
| B7 | 1.26 | 6950 | 107 |
| B8 | 1.61 | 7510 | 116 |
| B9 | 0.977 | 6790 | 105 |
| B10 | 2.54 | 7320 | 113 |
| B11 | 0.589 | 6570 | 101 |
| B12 | 0.478 | 6730 | 104 |

molecular target: T2, monkey Trop2 protein (Sino Biological, …); assay: BLI, Octet RED96; ratio against KD for human Trop2 protein
Method: as §1

| Binder | KD (monkey)/KD (human) |
| --- | --- |
| B3 | 6.02 |
| B4 | 2.24 |
| B5 | 7.57 |
| B6 | 5.85 |
| B7 | 4.56 |
| B8 | 2.12 |
| B10 | 2.32 |
| B11 | 9.76 |
